The record followed here is the DeepSol protein solubility set.

This data set is described as follows: soluble on expression in E. coli; label from the status in PepcDB or PDB records.
As for “MSLKQFKSIINTSQDFEKRIEKIKKEVINDPDVKQFLEAHRAELTNAMIDEDLNVLQEYKDQQKHYDGHKFADCPNFVKGHVPELYVDNNRIKIRYLQCPCKIKYDEERFEAELITSHHMQRDTLNAKLKDIYMNHRDRLDVAMAADDICTAITNGEQVKGLYLYGPFGTGKSFILGAIANQLKSKKVRSTIIYLPEFIRTLKGGFKDGSFEKKLHRVREANILMLDDIGAEEVTPWVRDEVIGPLLHYRMVHELPTFFSSNFDYSELEHHLAMTRDGEEKTKAARIIERVKSLSTPYFLSGENFRNNEGHHHHHH”, the “soluble on expression in E. coli” value is “soluble”.
“MHDVPPFSGAKLALFYGDHLVVYKRDEKPGIPFPGYWDFPGGGREGLETPAECALRELEEEFSIRLEEPRIEWQRQYPSTSGSAPFAYFLVARLEDREFEAIRFGDEGQYWRLMEVDAYLAHAMAVPYLQSRLGDYLRERRRIGE”: the “soluble on expression in E. coli” value is recorded as “soluble”.
In the case of “SSESIRMVLIGPPGAGKGTQAPNLQERFHAAHLATGDMLRSQIAKGTQLGLEAKKIMDQGGLVSDDIMVNMIKDELTNNPACKNGFILVGFPRTIPQAEKLDQMLKEQGTPLEKAIELKVDDELLVARITGRLIHPASGRSYHKIFNPPKEDMKDDVTGEALVQISDDNADALKKRLAAYHAQTEPIVDFYKKTGIWAGVDASQPPATVWADILNKLGKN”, the “soluble on expression in E. coli” value was “soluble”.
As for “AHHHHHHGSIDDLVERMRKGDRRAVARLITLVENDEKKAREIIKRIYPLTGNAYIVGITGPPGSGKSTLVDKLVKEARKEGLIVGVIAVDPTSPFTGGALLGDRIRMQDHATDPGVFIRSMATRGSLGGLAKATNDAIKILDAYGCDIIFVETVGVGQVEVDIVKTADTVVLVTVPGLGDDIQAIKAGLMEIADIFVLNKADREGADATYFELSLTLDLESEKWEKLGWRPPIVETVATLGKGIKELWEQIKRHREFLEKSGKLEEKKRLRVEEEIKTIVSDMIAKKVEVSIKAGNLEDILEKVMKKELDPYSAASLIMEKIIGGGKSV”, the “soluble on expression in E. coli” value is “soluble”.
On to “MPDLAGDLAAVLPPRPDTPGGEALPTDSGDVLRQGDILGRRVQSVRLGWDQLTSVQLWMCEQVLGIESAAEDEKPRRTRADKWALNYQAAKQFYEREGHLQVARKWVERIVIGGDGDGGDDKEEREHKLGARIGIQRSRAATPTPERMELLSAIGMRWSLEHHHHHH”, for which the “soluble on expression in E. coli” value is recorded as “not soluble”.
Regarding “MISTNGITMQFGAKPLFENVSVKFGEGNRYGLIGANGSGKSTFMKILGGDLEQTAGEVAIENGVRLGKLRQDQFAYEDMRVLDVVMMGHTEMWAAMTERDAIYANPEATEDDYMKAAELEAKFAEYDGYTAEARAAELLSGVGISEDLHNAKMAEVAPGFKLRVLLAQALFSKPDVLLLDEPTNNLDINTIRWLEGVLNQYDSTMIIISHDRHFLNEVCTHMADLDYNTITIYPGNYDDYMLASAQSRERALKDNAKAKEKLQELQEFVARFSANKSKARQATSRLKQADKIKSEMVEVKPSTRQNPYIRFEADEKAKLHRQAVEVEKLAKRFETQLFKNLNFILEAGQRLAIIGPNGAGKSTLLKLLAGAYNPEYSDGLLPDEGTIKWAEKASVGYYPQDHENDFDVDMDLSEWMRQWGQEGDDEQVIRGTLGRLLFGSNDVVKKVKVLSGGEKGRMLYGKLLLLKPNVLVMDEPTNHMDMESIESLNMALEKYNGTLIFVSHDRQFVSSLATQIIELDGKGGYEHYLGDYESYLEKKGVA”, the “soluble on expression in E. coli” value is “not soluble”.
The same measure for “MTSVLDPDRALEDEAKDKFGFVGIAKQLAPPIIEAAKGEGMVIGLEGRWGSGKTSLLNFLRAELQASKKSGIHTITIAPWLNGDTSSLVLSLLEPMAAVLKQKEDELAESYGEGQSATKERVAEVGRLLRAYGPKTARRIASLANVAGYVLPGAQAIGGALAASASAADEIFDVGPTPSELKQELAVKIQELNVGFIVILDDLDRLEPEQAVEVVRLVRSVADFPKVVYLMCYDREVLSEALKTGLKVSDGDLFLQKIVQLTFNIPLPEPFDLRTQFRNEAKAIYFEATGVDLDGAILHDLTYAVDREGMGLSTPREVKLALNSIRFVFSQVKDDVYFPDLCRLHLIKTTNYKLYKWLEIYLSVRSVLVTGDATVSEDEKTKMGEELKMLLPASGPGSVHSIWSLARFIPGVVDTEKVSERVFNAINSSAISEAVRLKRLGSPLHYRFYFALTGPKTVMPDEDFNAILELARNDIDQLESRLAAETMKRRDSGRTWFEHVLDRLDDDCISSLDESQLSGILHALSGMMDIAMKEDGEVRSFALSLDGIANIVAKRCLVRLRELNPEKQANTVRSMAQDGKAINWLVGKFFRSQLFNHGKVGERAERPEQWEISEDLLDDIIEILRKRLSEQDIKNLIPNLPNVSAYLYGWMNLTDDDQAKNWVQEYSESDEGFLDILNHLRGWAMSDKVYYPLSEKTVSSFLDWNEVKTRLDGMQLEHHHHHH”: “not soluble”; for “MRAASTSKPVGAHEETGHLGGAHSTYVSSAQVTNAEHENELQVVDLPRAPPSLSKAVTYFYITGFGRFALMEDNPTERVVLRLREILQDPGRVQMLHERLVRIVDLRILEVSAAAAHETLAEMKTQCLQMRQKPNISSDGRNRTVCFLHLGVDASADGFLVERSAVNEALFRFPDERGWQPTTPIPIVRGAQLGARYELDGEALASLCERTESLLNEWGRTNWTVRVNDDAGRFLCNYLFYLSAFEGLAENGHHLWQTFFLHCPMETVAPLDVQVDVVLAFMVAVAQSNAQQGPLEGILAR”: “soluble”; for “MTEHKSGFVSIIGRPNVGKSTFVNRVIGHKIAIMSDKAQTTRNKIQGVMTRDDAQIIFIDTPGIHKPKHKLGDYMMKVAKNTLSEIDAIMFMVNANEEIGRGDEYIIEMLKNVKTPVFLVLNKIDLVHPDELMPKIEEYQSYMDFTEIVPISALEGLNVDHFIDVLKTYLPEGPKYYPDDQISDHPEQFVVGEIIREKILHLTSEEIPHAIGVNVDRMVKESEDRVHIEATIYVERDSQKGIVIGKGGKKLKEVGKRARRDIEMLLGSKVYLELWVKVQRDWRNKVNFIRQIGYVEDQD”: “not soluble”.
For “GSHMHRVINHPYYFPFNGKQAEDYLRSKERGDFVIRQSSRGDDHLAITWKLDKDLFQHVDIQEMEKENPLAMGKVLVVEGQRYHDLDQIIVEYLQNKIRLLNE” the value was “soluble”; for “MGEETRRQERRIDAEKRAVSSLLFRIIRSHSTPVANSTASDEATAAAAAGQQNFASRKRRETKKREKSSSSCVSHCFLVMGHGKAFVF”, “not soluble”.
In the case of “MGSDKIHHHHHHMMFKQVQQDFMDYIRDPNQPLPKGIEPRRMKIYRDLFFNNLDGFVSSAFPVLKSLYASDDWQLLVQAFFVNHDCQSPIFMDIAAEFLQFLQTEYQTKESDPGFMLELAHYEWLELVVAVAQEDEQLMTLSQDEVKTAKMCLNSTARVAQYHFDVQHISVDYQPVEPTPQGQFFCVYRDNADEVAFLQLSPLSAQVLAYLEQSQQSTLLELCHWLAGLYPNMATEQLNQGAFGLLAQLADKGIVKTRA”, the “soluble on expression in E. coli” value is on record as “not soluble”.
Turning to “CLKEGGDSNSEKFIVGTNATYPPFEFVDKRGEVVGFDIDLAREISNKLGKTLDVREFSFDALILNLKQHRIDAVITGMSITPSRLKEILMIPYYGEEIKHLVLVFKGENKHPLPLTQYRSVAVQTGTYQEAYLQSLSEVHIRSFDSTLEVLMEVMHGKSPVAVLEPSIAQVVLKDFPALSTATIDLPEDQWVLGYGIGVASDRPALALKIEAAVQEIRKEGVLAELEQKWGLNNLEHHHHHH”, the “soluble on expression in E. coli” value is recorded as “soluble”.
Take “MRALRLLTRQEYQNTVNDLLGLSENLVHLLPEENRVDGFDNNVATNLVTSIRLEAFLTQAEALAAKAVQQNWNALLPCTQQDLEHHHHHH”: the “soluble on expression in E. coli” value is “not soluble”.
For “MPTPAYMRIEGEKQGLITAGTFTEDSVGNIYQEGHEDEVLVQGFEHQVLLPRDPQSGQPTGQRVHKPVRITKVFDKASPLMYNALTSGEKLPKVEIKWYRTSATGTQEHYFTTVLHDAIIVDITASMPNCQDPSQAHFTHLEDVFMTYRAIDWTHEVAGTSGNDDWRTAMKA” the value was “soluble”; for “MAKKEEYVRKPDWLKIKLNTNETYTGLKKMMREKNLHTVCEEAKCPNIHECWAVRKTATFMILGDVCTRACRFCAVKTGLPNELDLQEPERVAESVEIMGLKHAVITAVARDDLKDGGAGVFAETVRAVRRRNPFCTIEVLPSDMMGNDDNLKTLMDARPNILNHNIETVRRLTPRVRARATYERSLEFLRRAKEMQPDIPTKSSLMIGLGETKDEIIETMDDLRANNVDIMTIGQYLQPTKKHLKVQKYYHPDEFAELKEIALSKGFSHCEAGPLVRSSYHADEQVNEAQVREEARKAAAKS”, “not soluble”; for “MGSDKIHHHHHHMKTGRNDPCPCGSAKKYKNCCMDAISKQNSALLDDISQVTAMNPNLTHDELDLVLQQKAFAQNNRPIADFCGLSPAQMANWLYAPFNELNCVAISPPDDLSSSPVMRYLEVILDEAMAQNGSFKATSKGNLPTKLVKQASGLLPEFAVAQFSTNISISEYAGSNEDKFNALHYTRILAELSGIIYRKSGSYHVKKAAQKQYQSQGLTAFFLPMLEAAITKYNWGYLDSWEHDAVLSTFWLFMLWRLQSHASVDELIDEVATAFPDLLHQFPADKYRTPQAQLGMGIDSRFLKRFLQFWGFITLDPKRLFAEPREPRKVQIQPLLTQTFKFTI”, “not soluble”.
With “MGSDKIHHHHHHMADQMQWANALSTRHSLEAAVTDVVERAVSLLTAPADLGLVFISSAFTSEYSRLLPLLAEKLSVPVLIGCSGGGVIGTTVNGEIQELEAEPAISLTLAHLPGVKVQVFHVVAEELPDLDSSPDAWVDLIGVPASPTPQFILLSSSFASGINDLLQGLDFAYPGSVIVGGQASGGGMGGRVALFCNESDGEECQSLYREGTVGIALTGNIVLETIVAQGCRPIGKPLQVTKADRNIILELDEQVPLVVLRDLIASLSEHERTLAQHSLFVGVAMDEFKLALQQGDFLIRGILGVDPTAGAIAIGDRVRPGQRLQFHLRDAQASAEDLELLLQSYQTQRESEPSAVAALMFACLGRGEGLYGKPNFDSELFRRYLSDIPVGGFFCGGEIGPVGGRTFLHAYTSAFGICRQNQL”, the “soluble on expression in E. coli” value is recorded as “not soluble”.
For the sequence “KEEELVSDEEIGVKISLTGLKGGHSGVDIHLGRANANKLMFRFLKEAVGFYGARLAWVEGGSLRNAIPREAFAVITIQEEEAEAVWELVSDYQDLFRKEFSGIEENIKFEASRIECPRMIIPEEIQDCLINAVEACVNGPQSMLQDFPGTVESSSNLALITAKEGSISVRFLVRSSSESHKMWVASAIESVFSLAGARVEFDASYNGWQPNIQSHILEVMSKVFEEYYGQKPEVQVMHAGLECGIIQGVMPDMDMISVGPELQSPHSPDERIHIESVARTWEVLVKVLERV”, the “soluble on expression in E. coli” value is listed as “not soluble”.
“MGSDKIHHHHHHMQRIAENYDALPRQLKNVATYIEQHRSSVMVDRTSDIAASCGVHPSAVVRFAQRFGFSGFSDLQAVFRQAYTGQGSSSPSYQQRIRKLIDEKPGALSGGSVAREFIAASRGGLEELEAGLDDKQFDAAVKMLQQADNIYVIGVRRSFPVASYIVYALQHTPKRVHLVSGFGGMYREQIRSVKKGDVVIAISFAPYGKETQYCLRVAHHHQARTLVITDSQLSPLARYATTQLYVKEGSAFAFRSLTSTICLCQALFIALAYKLELNVEESKDTGGYDD”: the “soluble on expression in E. coli” value is “not soluble”.
Regarding “MEYELLIREAEPKDAAELVAFLNRVSLETDFTSLDGDGILLTSEEMEIFLNKQASSDNQITLLAFLNGKIAGIVNITADQRKRVRHIGDLFIVIGKRYWNNGLGSLLLEEAIEWAQASGILRRLQLTVQTRNQAAVHLYQKHGFVIEGSQERGAYIEEGKFIDVYLMGKLIG”, the “soluble on expression in E. coli” value was “soluble”.
